This passage reports protein stability index results from the supplement of paper PMC10567573.

± gives the standard deviation.

The data set can be described thus: protein stability index of a GFP-peptide fusion (GPS, HEK-293T) (PSI 1-6); higher = more stable. To be noted: c terminus: a fixed tail appended.
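Also: 24-mer peptide tiles fused after GFP, lentivirally expressed, FACS-sorted into six equal bins by GFP/DsRed ratio, decoded by Illumina sequencing, PSI is the read-weighted mean bin number.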

With KHKRQMQDPQLHSPFSGSLHAPPA [VENTX], the protein stability index (treatment: DMSO) stood at 3.98 ± 0.28 and the protein stability index (treatment: MLN4924 1 uM, 8 h) was determined as 3.83 ± 0.25.
For SQEETSILRCWKCRKCIASSGCFM [RNF180] the same measures were 2.81 ± 0.4 and 2.89 ± 0.35.
For LNVELDPEIQKVRAQEREQIKALN [KRT71] the same measures were 4.74 ± 0.13 and 4.75 ± 0.11.
For RGGGGGGGGGAPRGRYGPPSRRSE [SRSF1] the same measures were 5.61 ± 0.1 and 5.49 ± 0.071.
As for PNLNETSIVSGGYGGSGDGLIPTG [ARFIP2], the protein stability index runs as follows: (treatment: DMSO) 4.18 ± 0.13; (treatment: MLN4924 1 uM, 8 h) 4.45 ± 0.095.
In the case of EAKALLKERQKKDNHNLIERRRRF [TFE3], the protein stability index (treatment: DMSO) was determined as 4.21 ± 0.32 and the protein stability index (treatment: MLN4924 1 uM, 8 h) came to 4.38 ± 0.2.
In the case of LAAAPEGLEDAGLDPHFVPTELWP [TEX19], the protein stability index is 4.06 ± 0.11 (treatment: DMSO) and 4.19 ± 0.24 (treatment: MLN4924 1 uM, 8 h).
With RKSLLVVHQRTHTGEKPHTCSECG [ZNF649], the protein stability index is, setting by setting: (treatment: DMSO) 3.98 ± 0.21; (treatment: MLN4924 1 uM, 8 h) 3.95 ± 0.42.
For VSSDGTLKYMEVTLRPTDSQSHCY [PCDHGC5] the same measures were 2.8 ± 0.38 and 2.65 ± 0.23.
For LHLPIMGVVMKVRIPTCHDKPGTT [DENND6A] the same measures were 2.24 ± 0.31 and 2.25 ± 0.19.
For EAPDSLNGPLGPSEASIASNLQAM [SMG5] the same measures were 4.99 ± 0.21 and 4.91 ± 0.25.
On to ENKPSTCSFSIERILGLDQKKDCV [HESX1], for which the protein stability index is, setting by setting: (treatment: DMSO) 3.12 ± 0.49; (treatment: MLN4924 1 uM, 8 h) 3.42 ± 0.47.
For GSNPSSSNSSQDSLHKGAKRKGIK [PPFIA4] the same measures were 5.14 ± 0.69 and 5.53 ± 0.35.
In the same order, the values of SVFKKGRRRVPVRNLGKVVHYAKV [PLEKHN1] are 2.36 ± 0.17 and 2.37 ± 0.84.
In the same order, the values of LLSSGFEIDTPDKFGRTCLHAAAA [ANKRD44] are 2.95 ± 0.39 and 2.95 ± 0.035.
ECGKTFIYNSHLVVHQRVHSGEKP [ZNF232]: the protein stability index amounted to 2.96 ± 0.37 (treatment: DMSO) and 2.9 ± 0.49 (treatment: MLN4924 1 uM, 8 h).
For KYLKLQDTCRTQLVWLVRELVKSG [INTS3] the same measures were 2.94 ± 0.82 and 2.6 ± 0.83.
On to VGKVEELIESEAPPKASEQETAKE [C18orf25], for which the protein stability index (treatment: DMSO) was 5.53 ± 0.28 and the protein stability index (treatment: MLN4924 1 uM, 8 h) worked out at 5.6 ± 0.27.
For ERDFPCPVCRKTSRYRSLRPNRQL [TRIM39] the same measures were 2.93 ± 0.46 and 3.23 ± 0.45.
For LTERLKVLEAKMTMLTVIEQPVPP [EMID1] the same measures were 3.09 ± 0.46 and 3.32 ± 0.16.
For DKILALVPETIHDELQQSFQKSHN [PRIM1] the same measures were 3.85 ± 0.42 and 3.93 ± 0.47.
Consider RSHEGETAYIRVKVDGPRSPSYGR [SRSF1], for which the protein stability index reads like this: (treatment: DMSO) 3.83 ± 0.19; (treatment: MLN4924 1 uM, 8 h) 3.73 ± 0.32.
For YFRHADPTWQNSIRHNLSLNKCFI [FOXJ1] the same measures were 2.45 ± 0.41 and 2.23 ± 0.31.
For AALSATGPRFLAYFGSFATVGLLW [TMEM175] the same measures were 3.01 ± 0.25 and 3.18 ± 0.72.
In the same order, the values of ARLRHQELFRLRGIKAQVALRLAE [NOP53] are 2.22 ± 0.15 and 2.22 ± 0.31.
DDAVRVLREIVHKPGPITLTVAKC [DVL3]: the protein stability index is, setting by setting: (treatment: DMSO) 2.87 ± 0.16; (treatment: MLN4924 1 uM, 8 h) 2.9 ± 0.17.
For LSSVEAYNIRTDSWTTVTSMTTPR [KLHL12] the same measures were 2.79 ± 0.31 and 3.23 ± 0.37.
In the same order, the values of QRSYFLRIFDIKDGKLLWEQELYN [WASL] are 2.21 ± 0.48 and 2.08 ± 0.4.
For NAGSYIPSYTSWYPSAHQEAMQQP [DLX1] the same measures were 2.76 ± 0.16 and 2.84 ± 0.32.
VPRYTGVAPQDQCKLTCQAQALGY [ADAMTS4]: the protein stability index came to 2.4 ± 0.47 (treatment: DMSO) and 2.65 ± 0.36 (treatment: MLN4924 1 uM, 8 h).
In the same order, the values of PKNPALEAFLAQFSQLEDKFPGQS [TOR1AIP2] are 3.43 ± 0.1 and 3.64 ± 0.15.
In the same order, the values of LIHVYLPLTSHILRAFVNSQIQGH [SNX8] are 3.2 ± 0.27 and 3.19 ± 0.52.
Turning to EHQRSHTGERPHQCIECGKSFNRH [ZSCAN9], the protein stability index runs as follows: (treatment: DMSO) 3.88 ± 0.41; (treatment: MLN4924 1 uM, 8 h) 4.17 ± 0.41.
In the case of KDPRQWTETHVRDWVMWAVNEFSL [ETS1], the protein stability index is, setting by setting: (treatment: DMSO) 2.67 ± 1.1; (treatment: MLN4924 1 uM, 8 h) 2.23 ± 0.34.
For SPELGRPHDRSQGDWAPPPEGGME [ZNF263], the protein stability index is, setting by setting: (treatment: DMSO) 5.18 ± 0.21; (treatment: MLN4924 1 uM, 8 h) 5.41 ± 0.25.
In the same order, the values of HQLDFVQVKASSPVPATPILQLEE [TRIM9] are 4.54 ± 0.094 and 4.49 ± 0.33.
